According to the nanobody polyreactivity screen of Harvey et al. (2022):

Experiment: yeast display, Sf9 membrane polyspecificity reagent, FACS + sequencing; frameworks hold sequencing errors
Procedure, shortened: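 Nanobodies from a synthetic yeast display library (Saccharomyces cerevisiae BJ5465), induced 36–48 hours with galactose, were stained 1 hour at 4 °C with 10% biotinylated, detergent-solubilized Sf9 membrane reagent, enriched on streptavidin microbeads, then FACS-sorted. Anti-HA (expression) and streptavidin (reagent binding) fluorescence set low and high (top ~1%) gates. Polyreactivity labels come from the gate of origin. Genes were colony-PCR amplified, MiSeq 2 × 250 sequenced and filtered by CDR length.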

Sequence | polyreactivity (PSR sort gate)
QVQLVESGGGLVQAGGSLRLSCAASGGISAFNSMGWYRQAPGKERELVAAINYRGGTTYYADSVKGRFTISRDNAKNTVYLQMNSLKPEDTAVYYCNKPYYSSTYYYWGQGTQVTVSS | low polyreactivity
QVQLVESGGGLVQAGGSLRVSCAASGRIFDSYAMGWSRQAPGKERELVAVISNNDGTTYYADSVKGRFTISRDNAKTTVYLQMNSLKPEDTAVYYCNAVYSSGVDGSEGFDYWGQGTQVTVSS | low polyreactivity
QVQLVESGGGLVQAGGSLRLSCAASGNTFPVYAMGWYRQASGKERELVATITSGGSTNYADSVKGRFTISRDNAKNTVYLQMNSLKPEDTAVYYCARRAVYSKRRYDYWGQVTQVTVSS | low polyreactivity
QVQIVESGGGLVQAGRSLRLSCAASGLIFRRYTMGWYRQAPGKERELVAAIRNSGSSTDYADSVKGRFTISRDNAKNTVYLQMNSLKPEYTAVYYCAKRSACKLTYDSWGQGTQVTGSS | low polyreactivity
QVQLVESGGGLVQAGGSLRLSCAASGSIFKSYAMGWYRQAPGKERELVAAISGSGGRTYYADSVKGRFTISRDNAKNTVYLQMNSLKPEDTAVYYCNALASIRTHTGYAYSPPYDYWGQGTQVTVSS | high polyreactivity
QVQLVESAVGLVKAGGSHRLSCAASASTFYLNARGWYRQAPGKEREFVAAIRGGGTSKRYADSVKGRFTISRDNATNTVYLQMNILKPEDSAVYYCAAGRGGHRYKVGYWGLGTQVTVSS | high polyreactivity
QVQLVESGGGLVQAGGSVRLSCAASGRIFRYYALGWYRQAPGQEREWVAGITRGGTTNYADSVKGRFTISRDNATNTVSLQMNSLKPEDTAVYYCAADTRRGIIGYDYWGQGTQVTVSS | high polyreactivity
QDQLVESGGGLVQEGGSLRLSCAAYGSIYRYAMGWNRPAPGKERELVAAINFNGGRTYYADSVNGRFTISRDNAKNTVYLQMTSLKPEDTAVYYCAARISVYSTLPNDFDYWGQGTQVTVSS | high polyreactivity
QVQLVESGGGLVQAGGSLRLSCAASGRTFYGYAMGWYRQAPGKERELVAAISRRGGSTNYADSVKGRFTLSRDNAKNTVYLQMNSLKPEDTAVYYCNVAFRIPYRMDYWGQGTQVTVSS | high polyreactivity
QVQLVESGGGLVQAGGSLRLSCAASGSTFSWYTMGWYRQAPGKERELVAAISWSGGRTYYADSVKGRFTISRDNAKNTVYLQMNSLKPEDTAVYYCAAYDYWYSLGVYQFYYWGQGTQVTVSS | low polyreactivity
QVQLVESGGGLVQAGGSLRLSCAASGSTFTTNAMGWYIQAPGKERELVASITWSGGGTNYADSVKGRFTISRDNAKNTVYLQMNSLKPEDTAVYYCAADYDDSHLRSDYWGQGTQVTVSS | low polyreactivity
QVQLVESGGGIVQAGGSLRLICAASVITLVLYAMVWYRQAPGKERELLAAISSSGGSTYYADSVKGRFTISRDNAKNTVYLQMTSLKPEDTAVYYCNVTPDWNARRPFDYWGQGTQVTVSS | high polyreactivity
QVQLVETGGGLVQAGCSLRLSCAASGSIFSYYAMGWSRQAPGKERELVAGITGSGGSTYADSVKGRFTISRDNAKNTVYLQMNSLKPEDTAVYYCAADLQRYWWWYEYWGQGTQVTVSS | high polyreactivity
QVQLVESGGGLVQAGGSLRLSCAASGRIFRYYAMGWYRPAPGKERELVAAITWRGDSTYYADSVKGRFTISRDNAKNTVYLQMNSLKPEDTAVYYCNKRWTDKYDSWGQGTQVTVSS | high polyreactivity
QVQLVESGGRLVQAGGSLRLSCAASGRIFGYYAMGWYRQAPGKERELVAAINYSGGSTYYADSVKGRFTISRDNAKNTVYLQMNSLKPEDTAVYYCNAVRYTLLYYWGQGTQVTVSS | high polyreactivity
QVQLVESGGGLVQAGGSRRLSCAASGRTFDFYAMGWYRQAPGKERELVAAITGADTSTYYADSVKGRFTISRDNAMNTDYLQMNSLKPEDTAVYYCASDGQWAYTVDPYVIYYRLDYWGQGTQVTVSS | low polyreactivity
QVQLVESGGGLVQAGGSLRLSCAASGRIFPWYTMGWYRQAPGKERELVATIRGSGGSTHYADSVKGRFTISRDNAKNTVYLQMNSLKPEDTAVYYCATDRPRYRYQYKFDYWGQGTQVTVSS | low polyreactivity
